Publication PMC7948595, “1,6-Hexanediol, commonly used to dissolve liquid–liquid phase separated condensates, directly impairs kinase and phosphatase activities” (The Journal of Biological Chemistry, 2021)

Molecular target: T1, GST-Cdk7 (2–346) (human, UniProt P50613 2-346)
T1 construct: Cdk7, human, residues 2-346
Assay: pull-down; 10 µg of purified CDK–cyclin complex immobilised by its GST-tagged subunit on GSH 4B sepharose beads in 100 µl PBS; incubated 1 h in PBS or PBS with 5% 1,6-hexanediol; washed three times; eluted in SDS-sample buffer; Coomassie-stained SDS-PAGE
Settings: both partners purified

T1 sequence (P50613 2-346): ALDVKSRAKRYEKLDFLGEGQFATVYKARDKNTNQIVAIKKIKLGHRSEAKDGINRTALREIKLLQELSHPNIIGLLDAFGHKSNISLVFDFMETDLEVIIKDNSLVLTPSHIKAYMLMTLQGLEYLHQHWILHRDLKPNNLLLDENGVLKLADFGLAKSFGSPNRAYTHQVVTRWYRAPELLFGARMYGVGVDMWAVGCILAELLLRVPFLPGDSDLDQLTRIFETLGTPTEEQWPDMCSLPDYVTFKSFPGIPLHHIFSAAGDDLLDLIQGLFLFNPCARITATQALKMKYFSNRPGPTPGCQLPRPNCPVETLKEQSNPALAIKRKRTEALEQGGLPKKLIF

binding result: binds
B1: Cyclin H (1–323) (natural protein, human, UniProt P51946 1-323, looked up)
chain: MYHNSSQKRHWTFSSEEQLARLRADANRKFRCKAVANGKVLPNDPVFLEPHEEMTLCKYYEKRLLEFCSVFKPAMPRSVVGTACMYFKRFYLNNSVMEYHPRIIMLTCAFLACKVDEFNVSSPQFVGNLRESPLGQEKALEQILEYELLLIQQLNFHLIVHNPYRPFEGFLIDLKTRYPILENPEILRKTADDFLNRIALTDAYLLYTPSQIALTAILSSASRAGITMESYLSESLMLKENRTCLSQLLDIMKSMRNLVKKYEPPRSEEVAVLKQKLERCHSAELALNVITKKRKGYEDDDYVSKKSKHEEEEWTDDDLVESL
notes: Cyclin H, human, residues 1-323; also called CycH
